The series deals with syndecan-4 cytoplasmic tail peptide with a phosphorylated Ser (S4c-P).

These results are taken from patent US6815187.

Recombinant PKCα: the “phosphorylation level of the PKCβ1 optimal substrate peptide by PKCα, in the presence of PIP2” value is given as “the phosphorylation level of the substrate was similar to that obtained with PIP2 alone”.
